Source: CN117886935A (BEIJING KENUO XINCHENG TECH CO LTD, dated 2024)

What was measured:
[1] = biological target: T1, 人CSF-1R-his重组蛋白 (human CSF-1R-his recombinant protein) (human, UniProt P07333 20-512, limits assumed); test: BLI (ForteBio), antibody on AHC probe, CSF-1R-his 60 nM, 1:1 fit
T1 construct: Analyte of the ForteBio assay, 60 nM; also called CD115; M-CSF-R; not shown: His tag

CSF-1R-mFc [2] = biological target: T2, CSF-1R-mFc (human, UniProt P07333 20-512, limits assumed); test: competition ELISA: CSF1-His coated, CSF-1R-mFc 0.15 μg/ml premixed with antibody
T2 construct: not shown: mouse Fc (mFc)

CSF-1R-mFc [3] = biological target: T2, CSF-1R-mFc; test: competition ELISA: human IL-34 coated, CSF-1R-mFc 0.15 μg/ml premixed with antibody
[4] = biological target: T3, CSF-1R on rhCSF-1R-CHO cells (human, UniProt P07333 20-972); test: flow cytometry on rhCSF-1R-CHO cells, FITC goat anti-human
T3 construct: whole, on cells; also called 细胞表面CSF-1R; CSF-1R-CHO细胞

[5] = biological target: CSF-1R on CSF-1R/SRE-Luc/HEK293 reporter cells (UniProt P07333 20-972, limits assumed); test: cell-based or functional assay
CSF-1R on CSF-1R/SRE-Luc/HEK293 reporter cells, sequence (P07333 20-972 limits assumed): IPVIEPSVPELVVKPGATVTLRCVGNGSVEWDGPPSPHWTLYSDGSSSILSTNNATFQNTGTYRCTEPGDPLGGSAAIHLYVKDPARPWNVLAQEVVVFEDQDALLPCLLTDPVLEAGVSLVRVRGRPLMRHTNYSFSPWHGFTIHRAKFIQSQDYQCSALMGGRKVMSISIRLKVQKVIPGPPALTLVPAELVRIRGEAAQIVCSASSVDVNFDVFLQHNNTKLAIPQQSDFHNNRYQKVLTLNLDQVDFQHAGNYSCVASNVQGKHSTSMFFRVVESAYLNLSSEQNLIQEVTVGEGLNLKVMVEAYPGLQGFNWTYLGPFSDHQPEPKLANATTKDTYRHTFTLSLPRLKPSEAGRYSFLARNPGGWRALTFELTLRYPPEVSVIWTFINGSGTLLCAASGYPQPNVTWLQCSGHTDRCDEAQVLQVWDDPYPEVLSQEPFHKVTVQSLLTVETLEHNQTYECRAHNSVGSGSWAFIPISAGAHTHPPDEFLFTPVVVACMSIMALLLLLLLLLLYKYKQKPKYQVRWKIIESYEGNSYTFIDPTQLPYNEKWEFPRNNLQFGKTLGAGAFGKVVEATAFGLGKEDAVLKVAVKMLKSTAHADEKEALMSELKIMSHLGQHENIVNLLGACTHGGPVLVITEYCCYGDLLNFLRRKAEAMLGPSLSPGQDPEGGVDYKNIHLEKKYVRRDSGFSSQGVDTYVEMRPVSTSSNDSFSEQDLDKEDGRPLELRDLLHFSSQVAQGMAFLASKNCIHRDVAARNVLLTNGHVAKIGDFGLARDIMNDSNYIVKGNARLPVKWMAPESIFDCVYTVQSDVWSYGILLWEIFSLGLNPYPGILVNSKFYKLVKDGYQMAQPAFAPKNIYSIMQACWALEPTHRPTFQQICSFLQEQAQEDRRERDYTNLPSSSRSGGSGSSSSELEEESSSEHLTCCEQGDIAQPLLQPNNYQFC

T1 sequence (P07333 20-512 limits assumed): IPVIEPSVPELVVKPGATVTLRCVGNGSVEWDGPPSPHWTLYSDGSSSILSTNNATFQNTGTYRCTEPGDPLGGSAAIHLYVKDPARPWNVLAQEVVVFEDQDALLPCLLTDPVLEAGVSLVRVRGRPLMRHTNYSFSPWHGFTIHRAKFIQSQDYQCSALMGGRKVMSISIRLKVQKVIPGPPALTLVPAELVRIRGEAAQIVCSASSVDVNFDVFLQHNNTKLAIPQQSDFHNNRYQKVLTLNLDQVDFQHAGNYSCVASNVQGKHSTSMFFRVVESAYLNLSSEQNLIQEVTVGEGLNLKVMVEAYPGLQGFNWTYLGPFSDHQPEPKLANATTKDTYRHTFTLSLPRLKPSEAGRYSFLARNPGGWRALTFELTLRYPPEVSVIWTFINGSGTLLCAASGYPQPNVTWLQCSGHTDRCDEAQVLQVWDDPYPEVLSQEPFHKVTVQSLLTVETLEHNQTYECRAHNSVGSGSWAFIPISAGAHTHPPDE
T2 sequence (P07333 20-512 limits assumed): as above
T3 sequence (P07333 20-972): as the sequence (P07333 20-972 limits assumed) above

Kd [1]: 2.38 nM
koff [1]: 0.000228 s⁻¹
kon [1]: 95800 M⁻¹ s⁻¹
IC50 (CSF-1R-mFc [2]): 0.3 nM
IC50 (CSF-1R-mFc [3]): ~0.752 nM
EC50 [4]: 0.109 µg/mL
IC50, inhibition of CSF-1-stimulated (7.2 ng/ml) SRE-Luc reporter in CSF-1R/SRE-Luc/HEK293 cells [5]: 0.21 µg/mL
IC50, inhibition of IL-34-stimulated (85.06 ng/ml) SRE-Luc reporter in CSF-1R/SRE-Luc/HEK293 cells [5]: 0.34 µg/mL
B1: Cabiralizumab (FPA-008) (antibody, V domains shown)
VH: QVQLVQSGAEVKKPGSSVKVSCKASGYTFTDNYMIWVRQAPGQGLEWMGDINPYNGGTTFNQKFKGRVTITADKSTSTAYMELSSLRSEDTAVYYCARESPYFSNLYVMDYWGQGTLVTVSS
VL: EIVLTQSPATLSLSPGERATLSCKASQSVDYDGDNYMNWYQQKPGQAPRLLIYAASNLESGIPARFSGSGSGTDFTLTISSLEPEDFAVYYCHLSNEDLSTFGGGTKVEIK
notes: Control antibody, synthesised after CN107011438 A; also called Cabirlizumab; 对照抗体
